Assay: label from the status in PepcDB records
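Also: failed if final PepcDB status was selected cloned or expressed and not failed if soluble or beyond.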

Sequence | protein production
MEEDVPEAEKLMCPKEVVEKNKDKQEEEEDEKGAKGGILNNLISNFMDCTTTTVEGKSSENIQKSLCEDEDEKEQESPSVGILEKIISHLPEDVAPTTDEAAILIHSAID | failed
MEEGKMDENEWGYHGEGNKSLVVAHAQRCVVLRFLKFPPNRKKTSEEIFQHLQNIVDFGKNVMKEFLGENYVHYGEVVQLPLEFVKQLCLKIQSERPESRCDKDLDTLSGYAMCLPNLTRLQTYRFAEHRPILCVEIKPKCGFIPFSSDVTHEMKHKVCRYCMHQHLKVATGKWKQISKYCPLDLYSGNKQRMHFALKSLLQEAQNNLKIFKNGELIYGCKDARSPVADWSELAHHLKPFFFPSNGLASGPHCTRAVIRELVHVITRVLLSGSDKGRAGTLSPGLGPQGPRVCEASPFSRSLRCQGKNTPERSGLPKGCLLYKTLQVQMLDLLDIEGLYPLYNRVERYLEEFPEERKTLQIDGPYDEAFYQKLLDLSTEDDGTVAFALTKVQQYRVAMTAKDCSIMIALSPCLQDASSDQRPVVPSSRSRFAFSVSVLDLDLKPYESIPHQYKLDGKIVNYYSKTVRAKDNAVMSTRFKESEDCTLVLHKV | failed
MEEKANTGQVIIVLTEHLTFGTLLIPYMAEKSDDGTYQLIEQAFHASPEAISRMNEAEQQAIDIASHYTEKYLMGIYSREKTVSRFLRKLSEDPERVKNNIRPFIEKKMQEMLTLIRHHNLPLYQKQVGSKLLYAHHAYHVHPHDVEIRFTFLADETNFRYQLQCYYDGQPLSLSEQKPVIVLTSSPSALLLGMELYFFPHIESVRILPFTKKKKISVPASQIEKYIDNIVIPIARYHEITTQGLNIIEETYACEAVLSLEDTIYDEQMLRLSFRYGDQSFTPDTVTEMKKIIYRNDFGEIFFFRRDSDAEEEKLRMLTDSGLQRVSDVHFKLSPDAPEKTITEWISTYREMLQQSFLLTGNMGNTPYCLDEIRIEQSCDDEPDWFELHITVVIGNLRIPFSRFRKHILEEKREFLLPDGRMILLPEEWFSKYGNLLELGTQTETGIRLKPTFVGAVQSALEENGPKNLLFKREIRNVPVPQGLNAKLRPYQQKGFSWMVQLNKQGFGGCLADDMGLGKTLQTLTLLQYIYKPLSPDAVTAPMKPVFTETTASDSQPDKECTANNPPVREQIADAEGQFSLFSFSSEDELLPDAREIREKNRPKEDDHRQEHGKNSRKPATLIVVPTSLLHNWRREAKRFTTLAIAEYNSNTAFPKGHPEKFFNHFHLIFTTYGMMRNNIDILRSYTFEYIVLDESQNIKNNDSLTFRSVIQLQGKHRIALTGTPIENSLKDLWAQFRFLQPDLLGEESTFHKQFIIPIRQGNVRMEKRLQQIIAPFILRRSKSEVAPELPPLTEETIYCAMSEKQGESYEQEKNSLRNILLQQPENKDRYHMFSILNGILRLRQLACHPQLIFPDFDGVSGKTEQIIDTFDTLRSEGHKVLIFSSFVRHLEILAEVFRQRGWKYALLTGSTNNRPSEIAHFTEQKDVQAFLISLKAGGVGLNLTQADYVFIIDPWWNPAAESQAIARAHRIGQDKQVIAYRFITQNSIEEKILQLQEDKRRLAETFITDSEALPALSNEQWADLLK | failed
MEEKKDFYDTDELRDFMALVEKTNDIKKIALFRILAFTGIRKGELLALEWKDYRKSTLDINKAISHSPVGYEILPPKANSNRLLSLDEKTCKILDELHQTYPESTRIFESENGGMLSPSKPRKWLLEITKEKEIEPIRIHAFRHTHASLLFESGMSLKQVQYRLGHADLKTTMNIYTHITKLEHHHHHH | not failed
MEENLISMREDHSFHVRYRMEASCLELALEGERLCKSGDCRAGVSFFEAAVQVGTEDLKTLSAIYSQLGNAYFYLHDYAKALEYHHHDLTLARTIGDQLGEAKASGNLGNTLKVLGNFDEAIVCCQRHLDISRELNDKVGEARALYNLGNVYHAKGKSFGCPGPQDVGEFPEEVRDALQAAVDFYEENLSLVTALGDRAAQGRAFGNLGNTHYLLGNFRDAVIAHEQRLLIAKEFGDKAAERRAYSNLGNAYIFLGEFETASEYYKKTLLLARQLKDRAVEAQSCYSLGNTYTLLQDYEKAIDYHLKHLAIAQELNDRIGEGRACWSLGNAYTALGNHDQAMHFAEKHLEISREVGDKSGELTARLNLSDLQMVLGLSYSTNNSIMSENTEIDSSLNGVRPKLGRRHSMENMELMKLTPEKVQNWNSEILAKQKPLIAKPSAKLLFVNRLKGKKYKTNSSTKVLQDASNSIDHRIPNSQRKISADTIGDEGFFDLLSRFQSNRMDDQRCCLQEKNCHTASTTTSSTPPKMMLKTSSVPVVSPNTDEFLDLLASSQSRRLDDQRASFSNLPGLRLTQNSQSVLSHLMTNDNKEADEDFFDILVKCQGSRLDDQRCAPPPATTKGPTVPDEDFFSLILRSQGKRMDEQRVLLQRDQNRDTDFGLKDFLQNNALLEFKNSGKKSADH | failed
MEENMEKNKIKKIALIFNILQVIALAVFEVVLFRLVSYKNKLILDYVPAKYFIILEVVLVAITIIPFLIRKGKKTSIISMVISILMAIVLFATSILGVVYDKDIKNVLNKADQTIDDVVENSKLSTEEYGVYILKSDEAEELKDIENYNLGYNLSYAKDETDSVLKNVLAKANNKLIANEYDDLLKMADELLNTEKTAFIFNQAMLDLIENAGDDTNDGKNNGIYKNFTNKIKCIYVVNVKTAVKEYGGDKNVTKECFNVYISGIDTEGDVTAKSRSDVNIIMSINPVTHQVLLLSTPRDYYVPLSISNGVKDKLTHAGNYGINVSMDTLEMLYDIKLDYFIRLNFTGFVDIIDALGGIDVVSDYSFSTHGYSYSEGLNSNLSGIQALWFARERHAFAEGDKQRGRDQMKVIEAVIKKAQSSALLNNYDEIFANISKSFQTNMPKKDIKALVKYQLNETPNWKVVSTSVTGTGRSDVTYSVPNSRAYVMDPDENSVNEAKKLLQKIQNNKKIKVKTTTE | failed
MEESKELNAVIDVIMLAGTILLKSGSEIHRVEDTMIRIAHSQGIVDCNVLAMPAAIFFSIENTNISRMKRVTSSSYNIEKVCDVNQISRQLVGGQIDLETAFKQLTALQAKPLPYTKLQVTLAATFSAPFFSVMFSGNIYDALGAGVATLFGFAFSLYVEKFIRIPFVTAFAGAFVFGIIAQFWARYTGFPSTADLIIAGAVMPFVPGIALTNAVRDIMTNHINSGMSKMFESLLITLALGAGTSVALVLMN | failed
MEETILIVSFLLFLILSNVINRIFPKLPLPFIQLVFGILSGLVFHKSQVHIDPELFLAFVIAPLNFREGQESDIGSFIKYRAIILYLILPTVFLTAIVVGYVAGHLLPVSLPLAACFALGAALGPTDAVAFISIAKRFQFPKRAENILKLEGLLNDASGLVSFQFALTALVTGYFSLAKASLKLALAIMGGFLIGLLFAFLMRLCLTVLEKFDAADVTGALLLELTLPFVAYFVADLLGFSAIIAVVVAGVMQANRLKKVTLFDAQVDRVTSVIWETLNFILNGLVFLIFGRELTRIIGPLLTSNAYSNFDLISIVVLVTCTLFLVRFLAVSCFYAWRSFKYHKSFKKYWREIQLLTFSGVKGSVSIATILLLPKHSVIGELGYSLILFTVGAVTLMSFLTGLLVLPKLAPPLQVKDDYLIRLSILTKVLSVLEEDGKSSENQASFYAVIDNYNSRIRHLILEQESSDIKKDLAELQLMMLSIESDGLEAAYRYGNISIKEYRIYQRYLKYLERQVNRSFVSNITYSLTILMRVIRGIVHEFLTFGQGIRNRKKHFKNRKRLLAEVNRQHLTDLYLSNNDLILETLEDMEGYYNATLIDFLQNERIRDAELIKSGLFVERVIARITPDILNETLRGYYLERRTISEFERDGLISSKESQILRDNVNELESYSLRDSQSSIPYQLLDLKK | failed
MEETLATPDATRRSLSPSCSATVKSRAAGFERRTKRRLSETNASVREDREEAEEEEDEVKEKIEALQRIIPGGAALGVDALFEETAGYILSLQCQIKTIKVLTSFLQRIDQEDMKFGG | failed
MEEVEEFKYEPKSVKEIFIEMKDTVELMVDLAYASLLFGDKEIAEEVLELEERIDLLNYQLMMHSVLAARNVKEAEQVITILQIANAIEDISNAAGDLAKMVLEGVELHPVIKETILEGEEIIGKIQVYPESVIVGKTLGELDLATNTGVWIIAVRRGKRWIFGPNENFKIRAGDVLIGRGTRTSIDHLKEIARGAIRVIGNERA | not failed
MEEVKFYVRCYDKIELARMYFPNLSNPVSVAKLRRWMRNCMPLMEELMAGDFHPKMKMFSAREVRLIVRYLGEPDGYVFMHEHADVK | failed
